# Laboratory results: the supplement of paper PMC7877785
# ± gives the uncertainty stated by the source.
# Test: self-splicing fitness, log relative to wild type (ln ratio); higher = more splicing; Tetrahymena group I intron in knt gene, E. coli kanamycin selection, DiMSum; sequences stand for … in CUCUCU…GGAGGGAAAAGUUAUCAGGCAUGCACCUGGUAGCUAGUCUUUAAACCAAUAGAUUGCAUCGGUUUAAAAGGCAAGACCGUCAAAUUGCGGGAAAGGGGUCAACAGCCGUUCAGUACCAAGUCUCAGGGGAAACUUUGAGAUGGCCUUGCAAAGGGUAUGGUAAUAAGCUGACGGACAUGGUCCUAACCACGCAGCCAAGUCCUAAGUCAACAGAUCUUCUGUUGAUAUGGAUGCAGUUCACAGACUAAAUGUCGGUCGGGGAAGAUGUAUUCUUCUCAUAAGAUAUAGUCGGACCUCUCCUUAAUGGGAGCUAGCGGAUGAAGUGAUGCAACACUGGAGCCGCUGGGAACUAAUUUGUAUGCGAAAGUAUAUUGAUUAGUUUUGGAGUACUCGUGGUCG
# Outline: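 The eight P1ex-region nucleotides of an intron in the knt kanamycin-resistance gene on pET-22b(+) were all randomised and the library put into E. coli BL21(DE3). Six replicate transformations were grown overnight at 37°C or 30°C on LB agar with or without 25 μg/mL kanamycin, together with 100 μg/mL carbenicillin, 50 μM IPTG and 0.2% rhamnose. Colonies were pooled and amplicon-sequenced on an Illumina HiSeq 2500. Fitness from DiMSum is the error-weighted combination of wild-type-normalised replicate fold changes, kanamycin over none.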
Sequence,self-splicing fitness (ln) (30 °C),self-splicing fitness (ln) (37 °C)
GACCAGCAAUAUUACGGUCA,-1.44 ± 0.099,-0.935 ± 0.1
GACCAGCAAUAUUACGGUGC,-2.31 ± 0.067,-2.09 ± 0.09
GACCAGCAAUAUUACGUACG,-1.34 ± 0.074,-0.696 ± 0.088
GACCAGCAAUAUUACGUCGU,-0.568 ± 0.052,-0.218 ± 0.069
GACCAGCAAUAUUACGUGAC,-1.27 ± 0.069,-1.7 ± 0.11
GACCAGCAAUAUUACGUGCA,-0.378 ± 0.07,-0.122 ± 0.086
GACCAGCAAUAUUACGUGUA,-0.635 ± 0.06,0.255 ± 0.074
GACCAGCAAUAUUACGUGUC,-3.52 ± 0.16,-3.05 ± 0.24
GACCAGCAAUAUUACGUUAG,-3.82 ± 0.24,-2.79 ± 0.2
GACCAGCAAUAUUACGUUUU,-0.363 ± 0.036,-0.174 ± 0.052
GACGAGCAAUAUUACGACCC,-0.0053 ± 0.24,-0.307 ± 0.22
GACGAGCAAUAUUACGAGGC,-3.33 ± 0.18,-2.85 ± 0.29
GACGAGCAAUAUUACGCAUC,,-2.06 ± 0.36
GACGAGCAAUAUUACGCCUU,-3.3 ± 0.4,-1.48 ± 0.24
GACGAGCAAUAUUACGCGCC,-2.74 ± 0.19,-1.59 ± 0.25
GACGAGCAAUAUUACGCGUG,-3.11 ± 0.29,-1.77 ± 0.21
GACGAGCAAUAUUACGCUGA,-3.74 ± 0.35,-1.95 ± 0.24
GACGAGCAAUAUUACGGGAU,-4.33 ± 0.28,-1.74 ± 0.18
GACGAGCAAUAUUACGGUAC,-1.99 ± 0.39,-1.98 ± 0.34
GACGAGCAAUAUUACGGUAG,-4.01 ± 0.36,-2.18 ± 0.22
GACGAGCAAUAUUACGGUGC,-2.72 ± 0.28,-1.47 ± 0.25
GACGAGCAAUAUUACGUUGU,-3.4 ± 0.14,-2.74 ± 0.16
GACUAGCAAUAUUACGACUA,-1.04 ± 0.16,-0.443 ± 0.14
GACUAGCAAUAUUACGAGCC,-1.28 ± 0.17,-0.877 ± 0.26
GACUAGCAAUAUUACGAGGA,-2.29 ± 0.17,-1.43 ± 0.14

Sequence,self-splicing fitness (ln) (30 °C),self-splicing fitness (ln) (37 °C)
GACUAGCAAUAUUACGAUAG,-2.95 ± 0.16,-1.17 ± 0.12
GACUAGCAAUAUUACGCAAC,-0.979 ± 0.15,-1.54 ± 0.19
GACUAGCAAUAUUACGCAAG,-4.58 ± 0.36,-1.6 ± 0.15
GACUAGCAAUAUUACGCACA,-0.58 ± 0.13,0.00566 ± 0.14
GACUAGCAAUAUUACGCCGA,-0.898 ± 0.21,-0.421 ± 0.2
GACUAGCAAUAUUACGCGGG,-2.7 ± 0.22,-1.75 ± 0.18
GACUAGCAAUAUUACGCUGA,-1.16 ± 0.14,-0.638 ± 0.14
GACUAGCAAUAUUACGGACU,-0.117 ± 0.11,-0.611 ± 0.14
GACUAGCAAUAUUACGGAUC,-0.87 ± 0.096,-0.304 ± 0.14
GACUAGCAAUAUUACGGCGU,-0.502 ± 0.11,-0.198 ± 0.1
GACUAGCAAUAUUACGGCUA,-2.4 ± 0.17,-0.921 ± 0.12
GACUAGCAAUAUUACGGGAC,-2.29 ± 0.17,-1.44 ± 0.19
GACUAGCAAUAUUACGGUAA,-0.126 ± 0.084,-0.197 ± 0.078
GACUAGCAAUAUUACGGUCC,,-1.49 ± 0.42
GACUAGCAAUAUUACGGUGA,-1.07 ± 0.11,-0.694 ± 0.097
GACUAGCAAUAUUACGUACA,-1.02 ± 0.14,-0.0348 ± 0.15
GACUAGCAAUAUUACGUCCA,-2.24 ± 0.29,-1.47 ± 0.26
GACUAGCAAUAUUACGUGGC,-3.56 ± 0.24,-2.54 ± 0.21
GAGAAGCAAUAUUACGAAGG,-2.97 ± 0.24,
GAGAAGCAAUAUUACGAAUC,-3.91 ± 0.31,-1.12 ± 0.19
GAGAAGCAAUAUUACGAAUG,-3.46 ± 0.28,-1.7 ± 0.18
GAGAAGCAAUAUUACGACCG,-0.945 ± 0.32,-0.457 ± 0.27
GAGAAGCAAUAUUACGACGC,-0.75 ± 0.15,-0.292 ± 0.17
GAGAAGCAAUAUUACGAGGA,-3.83 ± 0.33,-2.11 ± 0.19
GAGAAGCAAUAUUACGAGGG,-3.49 ± 0.17,-2.99 ± 0.19

Sequence,self-splicing fitness (ln) (30 °C),self-splicing fitness (ln) (37 °C)
GAGAAGCAAUAUUACGCAAG,-1.6 ± 0.2,-0.212 ± 0.21
GAGAAGCAAUAUUACGCACC,-1.91 ± 0.28,-1.41 ± 0.42
GAGAAGCAAUAUUACGCAUC,-3.12 ± 0.43,-2.6 ± 0.35
GAGAAGCAAUAUUACGCCAC,,-0.779 ± 0.37
GAGAAGCAAUAUUACGCCUU,-2.46 ± 0.26,-0.767 ± 0.27
GAGAAGCAAUAUUACGCUGU,-3.35 ± 0.3,-1.45 ± 0.29
GAGAAGCAAUAUUACGCUUG,-2.34 ± 0.1,-0.658 ± 0.13
GAGAAGCAAUAUUACGGGGC,-3.04 ± 0.19,-3.05 ± 0.23
GAGAAGCAAUAUUACGUGUG,-2.18 ± 0.12,-1.96 ± 0.15
GAGAAGCAAUAUUACGUUAU,-3.33 ± 0.19,-2.47 ± 0.16
GAGAAGCAAUAUUACGUUGA,-3.28 ± 0.21,-1.19 ± 0.17
GAGAAGCAAUAUUACGUUGC,-3.47 ± 0.24,-3.31 ± 0.31
GAGCAGCAAUAUUACGAACA,-1.47 ± 0.12,-1.07 ± 0.15
GAGCAGCAAUAUUACGACUU,-0.557 ± 0.11,-0.841 ± 0.14
GAGCAGCAAUAUUACGAGGG,,-2.81 ± 0.38
GAGCAGCAAUAUUACGAUCA,-2.14 ± 0.15,-1.99 ± 0.15
GAGCAGCAAUAUUACGAUUA,-2.26 ± 0.15,-1.13 ± 0.12
GAGCAGCAAUAUUACGCAGU,-3.57 ± 0.2,-1.4 ± 0.17
GAGCAGCAAUAUUACGCCAA,-1.55 ± 0.29,-1.43 ± 0.31
GAGCAGCAAUAUUACGCCGG,-4.11 ± 0.39,-1.82 ± 0.3
GAGCAGCAAUAUUACGCGAC,-3.05 ± 0.49,-1.13 ± 0.29
GAGCAGCAAUAUUACGCUAG,-2.4 ± 0.14,-1.53 ± 0.17
GAGCAGCAAUAUUACGCUAU,-2.73 ± 0.27,-1.93 ± 0.17
GAGCAGCAAUAUUACGCUCA,-2.14 ± 0.2,-1.91 ± 0.16
GAGCAGCAAUAUUACGCUGG,-3 ± 0.16,-1.47 ± 0.16

Sequence,self-splicing fitness (ln) (30 °C),self-splicing fitness (ln) (37 °C)
GAGCAGCAAUAUUACGGAGC,-3.14 ± 0.13,-0.471 ± 0.11
GAGCAGCAAUAUUACGGCAA,-0.276 ± 0.062,-0.126 ± 0.072
GAGCAGCAAUAUUACGGCGA,-1.21 ± 0.099,-0.604 ± 0.11
GAGCAGCAAUAUUACGGUAU,-2.9 ± 0.11,-1.34 ± 0.1
GAGCAGCAAUAUUACGGUGG,-3.9 ± 0.2,-2.31 ± 0.16
GAGCAGCAAUAUUACGGUUG,-3.18 ± 0.17,-1.99 ± 0.16
GAGCAGCAAUAUUACGUAUA,-3.2 ± 0.27,-2.97 ± 0.27
GAGCAGCAAUAUUACGUAUG,-2.86 ± 0.14,-2.5 ± 0.2
GAGCAGCAAUAUUACGUCAC,-3.67 ± 0.18,-1.3 ± 0.17
GAGCAGCAAUAUUACGUGUC,-2.9 ± 0.12,-2.01 ± 0.12
GAGGAGCAAUAUUACGAGUG,-2.88 ± 0.35,-2.5 ± 0.23
GAGGAGCAAUAUUACGCAUG,-3.19 ± 0.48,-2.65 ± 0.3
GAGGAGCAAUAUUACGCUCG,-1.49 ± 0.14,-1.26 ± 0.22
GAGGAGCAAUAUUACGCUUC,,-3.68 ± 0.46
GAGGAGCAAUAUUACGCUUG,-1.28 ± 0.15,-1.27 ± 0.2
GAGGAGCAAUAUUACGGCCG,,-1.55 ± 0.39
GAGGAGCAAUAUUACGGCUU,-3.52 ± 0.37,-2.39 ± 0.25
GAGGAGCAAUAUUACGGGUG,-3.55 ± 0.27,-1.95 ± 0.32
GAGGAGCAAUAUUACGGUCC,-2.95 ± 0.16,-0.994 ± 0.2
GAGGAGCAAUAUUACGGUUU,-2.44 ± 0.13,-2.28 ± 0.16
GAGGAGCAAUAUUACGUACU,-2.16 ± 0.16,-0.205 ± 0.19
GAGGAGCAAUAUUACGUCAA,-2.72 ± 0.31,
